Laboratory results as given in article PMC10724393, “FOXA2 Suppression by TRIM36 Exerts Anti‐Tumor Role in Colorectal Cancer Via Inducing NRF2/GPX4‐Regulated Ferroptosis” (Advanced Science, 2023).

T1: His-tagged TRIM36 (human, UniProt Q9NQ86 1-728)
T1 construct: TRIM36, human; construct and limits of the His-tagged protein are not described; also called His-TRIM36; source: purified
T1 sequence (looked up): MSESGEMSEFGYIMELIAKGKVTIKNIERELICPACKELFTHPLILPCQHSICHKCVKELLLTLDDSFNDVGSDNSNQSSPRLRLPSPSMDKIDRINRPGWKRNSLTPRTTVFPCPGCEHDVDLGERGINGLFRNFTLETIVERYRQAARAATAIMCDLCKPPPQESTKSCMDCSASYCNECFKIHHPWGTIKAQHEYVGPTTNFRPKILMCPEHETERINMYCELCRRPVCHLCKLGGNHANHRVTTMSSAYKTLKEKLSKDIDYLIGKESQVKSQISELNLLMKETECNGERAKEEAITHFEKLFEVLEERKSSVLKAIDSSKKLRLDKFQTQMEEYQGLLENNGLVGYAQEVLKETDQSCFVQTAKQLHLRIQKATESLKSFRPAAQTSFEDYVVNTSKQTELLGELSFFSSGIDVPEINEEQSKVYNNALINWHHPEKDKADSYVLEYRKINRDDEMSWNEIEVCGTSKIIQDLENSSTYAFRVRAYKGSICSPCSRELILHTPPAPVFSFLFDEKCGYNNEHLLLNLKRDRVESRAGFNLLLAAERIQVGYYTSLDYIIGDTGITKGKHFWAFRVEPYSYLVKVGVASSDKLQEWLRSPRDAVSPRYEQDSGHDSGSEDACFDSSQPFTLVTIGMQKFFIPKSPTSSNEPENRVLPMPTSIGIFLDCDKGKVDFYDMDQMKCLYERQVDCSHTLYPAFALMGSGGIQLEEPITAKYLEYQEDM

T2: GST-TRIM36 (human, UniProt Q9NQ86 1-728)
T2 construct: TRIM36, human cDNA, full length, cloned into pGEX-4T-1-GST; also called purified GST-TRIM36
T2 sequence (looked up): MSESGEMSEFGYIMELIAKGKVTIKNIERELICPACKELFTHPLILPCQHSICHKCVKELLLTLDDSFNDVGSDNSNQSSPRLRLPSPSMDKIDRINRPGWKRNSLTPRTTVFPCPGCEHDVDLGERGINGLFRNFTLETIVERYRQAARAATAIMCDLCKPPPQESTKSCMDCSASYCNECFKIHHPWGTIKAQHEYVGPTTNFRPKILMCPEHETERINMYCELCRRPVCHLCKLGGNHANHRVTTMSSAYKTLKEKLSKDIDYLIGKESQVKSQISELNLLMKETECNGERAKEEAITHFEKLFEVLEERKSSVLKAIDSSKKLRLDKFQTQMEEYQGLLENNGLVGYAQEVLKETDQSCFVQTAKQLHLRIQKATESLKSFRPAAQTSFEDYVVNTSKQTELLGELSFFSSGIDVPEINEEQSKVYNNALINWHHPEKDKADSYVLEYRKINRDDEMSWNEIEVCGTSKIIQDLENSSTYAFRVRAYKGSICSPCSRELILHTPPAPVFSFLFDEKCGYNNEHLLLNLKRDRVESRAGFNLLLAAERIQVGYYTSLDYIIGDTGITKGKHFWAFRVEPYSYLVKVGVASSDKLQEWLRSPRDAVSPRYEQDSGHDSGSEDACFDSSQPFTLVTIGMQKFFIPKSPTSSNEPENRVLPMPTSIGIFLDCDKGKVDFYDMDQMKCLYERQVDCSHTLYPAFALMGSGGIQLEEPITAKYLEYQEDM


Experiments:
[1] = molecular target: T1, His-tagged TRIM36; assay: pull-down; GST fusion on glutathione-Sepharose 4B beads, incubated with purified His-tagged partner for 4 h; eluate blotted with anti-His; GST alone as control; conditions: both partners purified
[2] = molecular target: T2, GST-TRIM36; assay: as above; conditions: both partners purified

binding result [1]	binding result [2]	Binder
binds	–	GST-FOXA2 (natural protein, human, UniProt Q9Y261 1-457, looked up, FOXA2, human cDNA, full length, cloned into pGEX-4T-1-GST; also called purified GST-FOXA2) MLGAVKMEGHEPSDWSSYYAEPEGYSSVSNMNAGLGMNGMNTYMSMSAAAMGSGSGNMSAGSMNMSSYVGAGMSPSLAGMSPGAGAMAGMGGSAGAAGVAGMGPHLSPSLSPLGGQAAGAMGGLAPYANMNSMSPMYGQAGLSRARDPKTYRRSYTHAKPPYSYISLITMAIQQSPNKMLTLSEIYQWIMDLFPFYRQNQQRWQNSIRHSLSFNDCFLKVPRSPDKPGKGSFWTLHPDSGNMFENGCYLRRQKRFKCEKQLALKEAAGAAGSGKKAAAGAQASQAQLGEAAGPASETPAGTESPHSSASPCQEHKRGGLGELKGTPAAALSPPEPAPSPGQQQQAAAHLLGPPHHPGLPPEAHLKPEHHYAFNHPFSINNLMSSEQQHHHSHHHHQPHKMDLKAYEQVMHYPGYGSPMPGSLAMGPVTNKTGLDASPLAADTSYYQGVYSRPIMNSS
–	binds	His-tagged FOXA2 (natural protein, human, UniProt Q9Y261 1-457, looked up, FOXA2, human; construct and limits of the His-tagged protein are not described; also called His-FOXA2; source: purified) MLGAVKMEGHEPSDWSSYYAEPEGYSSVSNMNAGLGMNGMNTYMSMSAAAMGSGSGNMSAGSMNMSSYVGAGMSPSLAGMSPGAGAMAGMGGSAGAAGVAGMGPHLSPSLSPLGGQAAGAMGGLAPYANMNSMSPMYGQAGLSRARDPKTYRRSYTHAKPPYSYISLITMAIQQSPNKMLTLSEIYQWIMDLFPFYRQNQQRWQNSIRHSLSFNDCFLKVPRSPDKPGKGSFWTLHPDSGNMFENGCYLRRQKRFKCEKQLALKEAAGAAGSGKKAAAGAQASQAQLGEAAGPASETPAGTESPHSSASPCQEHKRGGLGELKGTPAAALSPPEPAPSPGQQQQAAAHLLGPPHHPGLPPEAHLKPEHHYAFNHPFSINNLMSSEQQHHHSHHHHQPHKMDLKAYEQVMHYPGYGSPMPGSLAMGPVTNKTGLDASPLAADTSYYQGVYSRPIMNSS
